One experiment addresses T1, GST-Rar1 (wild type) (Arabidopsis thaliana (Mouse-ear cress), UniProt Q9SE33).
T1 chain: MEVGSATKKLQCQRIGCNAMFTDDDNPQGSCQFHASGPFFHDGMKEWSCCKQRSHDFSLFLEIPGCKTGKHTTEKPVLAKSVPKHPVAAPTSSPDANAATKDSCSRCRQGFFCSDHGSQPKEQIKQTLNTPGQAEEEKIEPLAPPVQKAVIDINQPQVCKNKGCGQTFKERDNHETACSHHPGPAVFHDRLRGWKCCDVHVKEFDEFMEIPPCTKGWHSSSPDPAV
In words: GST pull-down; strengthened by Sgt1; ADP enhances the CHORDI-Hsp90 interaction.

Another experiment deals with Hsp90 ( (Arabidopsis H. vulgare or …, UniProt Q7XJ80)). In words: competition GST pull-down; ATPase stimulation.
Chain of Hsp90 ( (Q7XJ80 entry or part of it): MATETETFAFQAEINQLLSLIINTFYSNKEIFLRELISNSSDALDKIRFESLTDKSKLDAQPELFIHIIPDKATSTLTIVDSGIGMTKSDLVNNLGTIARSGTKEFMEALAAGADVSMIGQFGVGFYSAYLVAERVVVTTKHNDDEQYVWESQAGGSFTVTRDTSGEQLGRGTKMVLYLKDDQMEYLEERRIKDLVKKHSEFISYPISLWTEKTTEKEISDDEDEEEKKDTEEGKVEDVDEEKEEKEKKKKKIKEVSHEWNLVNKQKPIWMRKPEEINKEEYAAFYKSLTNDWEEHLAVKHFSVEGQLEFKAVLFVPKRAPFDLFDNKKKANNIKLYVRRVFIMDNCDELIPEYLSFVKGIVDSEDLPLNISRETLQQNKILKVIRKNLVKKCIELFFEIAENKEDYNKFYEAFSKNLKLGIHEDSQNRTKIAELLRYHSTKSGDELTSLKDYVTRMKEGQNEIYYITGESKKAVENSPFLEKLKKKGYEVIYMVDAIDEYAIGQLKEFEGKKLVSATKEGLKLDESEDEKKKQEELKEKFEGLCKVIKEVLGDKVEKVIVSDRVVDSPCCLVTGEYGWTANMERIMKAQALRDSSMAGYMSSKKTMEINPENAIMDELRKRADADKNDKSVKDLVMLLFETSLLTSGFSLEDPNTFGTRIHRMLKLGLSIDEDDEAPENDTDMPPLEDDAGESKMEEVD

B1: Hsp90 (protein)
chain: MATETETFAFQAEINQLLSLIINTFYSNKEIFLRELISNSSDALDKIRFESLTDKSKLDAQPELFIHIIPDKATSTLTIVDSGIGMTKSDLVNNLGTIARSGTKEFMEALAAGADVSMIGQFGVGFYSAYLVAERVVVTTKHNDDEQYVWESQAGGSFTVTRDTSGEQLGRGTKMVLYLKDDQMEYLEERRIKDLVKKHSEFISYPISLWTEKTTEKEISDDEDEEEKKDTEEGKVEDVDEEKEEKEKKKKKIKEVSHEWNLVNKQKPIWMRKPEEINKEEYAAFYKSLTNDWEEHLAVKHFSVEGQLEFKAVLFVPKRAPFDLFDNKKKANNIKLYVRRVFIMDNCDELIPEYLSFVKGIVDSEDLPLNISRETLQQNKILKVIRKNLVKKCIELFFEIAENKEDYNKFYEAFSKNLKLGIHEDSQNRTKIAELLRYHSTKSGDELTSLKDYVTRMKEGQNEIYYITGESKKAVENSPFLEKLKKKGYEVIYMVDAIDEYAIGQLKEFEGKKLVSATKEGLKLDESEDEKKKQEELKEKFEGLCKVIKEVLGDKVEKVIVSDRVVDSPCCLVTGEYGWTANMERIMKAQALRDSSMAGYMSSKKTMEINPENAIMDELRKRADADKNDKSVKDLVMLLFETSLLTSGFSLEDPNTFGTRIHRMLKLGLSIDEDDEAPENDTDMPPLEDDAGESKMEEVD
Consider B1, for which, in the experiment with GST-Rar1 (wild type), the binding result is on record as “binds”.

B2: Rar1 (wild type, not GST-tagged) (protein)
chain: MEVGSATKKLQCQRIGCNAMFTDDDNPQGSCQFHASGPFFHDGMKEWSCCKQRSHDFSLFLEIPGCKTGKHTTEKPVLAKSVPKHPVAAPTSSPDANAATKDSCSRCRQGFFCSDHGSQPKEQIKQTLNTPGQAEEEKIEPLAPPVQKAVIDINQPQVCKNKGCGQTFKERDNHETACSHHPGPAVFHDRLRGWKCCDVHVKEFDEFMEIPPCTKGWHSSSPDPAV
With B2, the binding result with Hsp90 is “binds”.
